pIC50: −log10 of the molar value.

This test has as its target SARS-CoV-2 Spike Trimer (B.1.617.2/Delta) (SARS-CoV-2) (UniProt P0DTC2). Kind of test: single-molecule force spectroscopy.

In general, pIC50 refers to the IC50 on a negative log10 scale, so that one unit is a factor of ten. Lower therefore signals a large IC50. In the case of “H84T-banana lectin (H84T-BanLec) (from UniProt Q8L5H4 1-141) (designed binder)”, the pIC50 was 8.41.

Source of the values: publication PMC9519379 (Cell Reports Medicine, 2022).
